Measurements published in article PMC8395731.

Molecular target: 6xHis-tagged mTOR fragment ∆N-FAT-M (human) (UniProt P42345)
Assay: BLI; BLItz; His-tagged mTOR fragments (1 µM) immobilised on Ni-NTA biosensors, tagless RHEB as analyte (0.5 and 1 µM, or 0.05 and 0.1 µM for ∆ATP), no GTP; 10 mM HEPES pH 7.4, 100 mM NaCl, 0.02% Tween-20, 5 mg/mL BSA, 25 °C; global 1:1 fit

Kd: 1260 nM
Substance: 6xHis-tag cleaved-RHEB (from UniProt Q15382 1-169) (natural protein)
